# Measurements reported in the DeepSol protein solubility set.
# Assay: soluble on expression in E. coli; label from the status in PepcDB or PDB records
row,Sequence,soluble on expression in E. coli
1,MGSDKIHHHHHHMKRILFISPTTSMDNGAEKSIYYLMKHLIQLGHTVINVTHAIGGEPQDKHEQLYKMIGVKNYYLPTVKWWWPDAPGGEILNREEATSYYRQNVQDIAEIIDQNEIDLVISNTVNVFQGAIAASCQKVPHFWLIHEFPKNEFAYYADKIDFIEEYSSELFSVTGELNNFLTPLFNKKVHSFISYTEQETKVLKKGNQVRIVSVGRLTEGKNQLELIKAYKTLNRLDIELVFIGGWDSKYKAICDEYIHENKLQKNVKFLGNLDNPWEEVTDRDICVFPSSMETFGLVYVEAILRGLPVILSDNLGHLTAFEIFSAGQIYKLGDIEELVTKLEQVIESFRNFSDRARLDVERLRTLYTPEVAYKEILNSINHLEYTGHQNTNLSHIKELLTLNMHPTRLERYARLISNMATKIRHKLRL,not soluble
2,MVFRCHYILVLEGFITQKNRLEHGGKDAGVEPPPYSNAAHHLTPWNDKRAIEAQELLKEFGIHHDSAANGVFLPYKVNEYVTTEVLHIGNHCTDYMKEVTKVLKEVKEYGGTQADAVAALHDIRIRLLDGSLKLNSPK,not soluble
3,KPKSAVAPPGAPKKEHVNVVFIGHVDAGKSTIGGQIMYLTGMVDERTLEKYEREAKEKNRETWYLSWALDTNQEERDKGKTVEVGRAYFETEKKHFTILDAPGHKSFVPNMIGGASQADLAVLVISARKGEFETGFEKGGQTREHAMLAKTAGVKHLIVLINKMDDPTVNWSNERYEECKEKLVPFLKKVGFNPKKDIHFMPCSGLTGANLKEQSDFCPWYIGLPFIPYLDNLPNFNRSVDGPIRLPIVDKYKDMGTVVLGKLESGSICKGQQLVMMPNKHNVEVLGILSDDVETDSVAPGENLKIRLKGIEEEEILPGFILCDLNNLCHSGRTFDAQIVIIEHKSIICPGYNAVLHIHTCIEEVEITALICLVDKKSGEKSKTRPRFVKQDQVCIARLRTAGTICLETFKDFPQMGRFTLRDEGKTIAIGKVLKLVPEKD,soluble
4,MSVNFFSLITSSWERGLFLKSCKNNSGTDSNRFFSFSVPPNLLDNLLPPLLVRKTLSSSSSKSCGIGGIYFKSSAVNVSEDGLTASTFFSILLPKNFLGITKLFCRIFLLSCPHNYKWFIHLINPFEYENFINIE,soluble
5,MPANGGRGVGEGESPVSFFERLKAGLQKTKEALIGQVNTVMSVFRKIDDDLFDELEEALIRGDVGVATSAKLVEELRREARQKGLKNGDELLPLLKELVAERLGSGAAPLRLNEGGLTVILVVGVNGVGKTTTIGKLARHLREDRGLKVVLAAADTFRAAAMDQLKVWGERAGAEVVTGPEGADPAAVAFDGVKAARASGADVLIVDTAGRLHNKAHLMAELGKIARVLGREVPGAPHETLLVLDATTGQNAIQQTRLFKETVPVTGIALTKLDGTAKGGVVVAIADTEQVPVKFIGVGERLDDLQPFDPRQFVEALFSE,soluble
6,MPQDYISYIRSKVGHDKIILNFAGGILTNDDGKVLMQLRGDKKTWTIPGGTMELGESSLETCKREFLEETGIEVEAVRLLNVYTHFEEVYPNGDAVQTIVFIYELTAVSDMAIDNFHNEETLKLQFFSHEEIAELESVSAKHRLMLEEYFSDSFAMGH,not soluble
7,MPTETLSSVFVLVVLLPTSGLLPRTEAAFVASSSIEYCERSSNGEPFPCEKKMVVGLSVGSEQTIEAEEVVLLREAVDKTGDEKGKRVEFEPIRLVTTKSPVQYRYPIYYIRNFNAKPYEQRLRTSASSWCDDSSNPGSATCGVARDRRGDVIPYSQGFCCLCGACALSGICNPTSRSVGTCSVTGDTGMASCLRFSDLWYGGYTIGRGVVWYELQVKLSSGNNSTGGGSTGSKEFTMSLGPDKLTATSTEFGASARLIGDFAPPEMPLDLSGKMLFIPSEPRGHERVGAGYNEWIIVDTHLVSIRGTECNKVGVSYEGFATQGSRCDAYPGACLANQLEDYRDRDLEAETKGQQGKYMARFFAPFGFDPLANASAPAVAYQVTGTLSTMVTITISADKLNFVLSVSSGVVVGATVSGKVVHSYSRGSTITVTVLNTGDIEAQYTVVVGECTVNVQPMVAQTVYIPLQGSAQRRFTLIVQDSIEGEAKCNATLRNARGDVVDTRAISFGVKALKPSNGSQGGSTFENGRYSEEAKGESQCQQCSWFNLLCFLRHRCWWQPLVYVLPSVTLLMLLRRFLESQSRSRPRPQLHPDEHELRNTGAISSCHLPRAPYVNTVH,not soluble
8,PKYTIVDKETCIACGACGAAAPDIYDYDEDGIAYVTLDDNQGIVEVPDILIDDMMDAFEGCPTDSIKVADEPFDGDPNKFE,soluble
9,MDAEPKRKFGVVVVGVGRAGSVRLRDLKDPRSAAFLNLIGFVSRRELGSLDEVRQISLEDALRSQEIDVAYICSESSSHEDYIRQFLQAGKHVLVEYPMTLSFAAAQELWELAAQKGRVLHEEHVELLMEEFEFLRREVLGKELLKGSLRFTASPLEEERFGFPAFSGISRLTWLVSLFGELSLISATLEERKEDQYMKMTVQLETQNKGLLSWIEEKGPGLKRNRYVNFQFTSGSLEEVPSVGVNKNIFLKDQDIFVQKLLDQVSAEDLAAEKKRIMHCLGLASDIQKLCHQKK,soluble
10,MFAYDRLALDLAVFNLKDVDSGNSSSSERSSPPTRIMSQAQNINDESGSSGYGSPTRTPLASPSNDIFSSVLPLQVQRAFSAQSPEEITRHFGVSPSPQAVKPVPEVQQQREQAQVSQTSAQGLAAVDGFSMAEIAGFAELLSSPKKTPPPRYQCHICYATGHHYISDCPQRFNTPYDELTPYQGRKKCYGEFTCQLCKRKWNSQNSVANEPQSCIKCHVPVFPHKQLPVEKAVTLGLIKAQNVTKVAPIGHGRPPARKHEEISRRH,not soluble
11,RADTLIYMTVNPKTNTTDMVSIPRDTYTKIIGKGTMDKINHSYAFGGTQMTVDTVENFLDVPVDYFVKVNMESFRDVVDTLGGITVNSTFAFSYDGYSFGKGEITLNGKEALAYTRMRKEDPRGDFGRQDRQRQVIQGIINKGAN,not soluble
12,MGSDKIHHHHHHMVKFIHCSDLHLDSPFKSKSHISPKIFEDVQKSAYESFKNIVDIALQQDVDFVIIAGDLFDSENRTLRAEIFLKQQFERLQNEQIFVYVCHGNHDPLSSKISSNWPDNVSVFSNKVETYEAITKSGETIYIHGFSYENRASYENKIDEYPSSQGQKGIHIGVLHGTYSKSSVNERYTEFILEDLNSKLYHYWALGHIHERQQLSDMPVINYSGNIQGRHFNEQGEKGCLLIEGDHLKLKTKFYPTQYIRFEEATIETDKTSKQGLYEVIQNFKEQVREEGKAFYRLTLVINSETLISPQDLLQVEEMITDYEENENQFVYIDELKIQYAQNDESPLVNEFSAELLVDQTVFDKAMSDLYLNPRASKFLDDYGTFDHTALVNRAEEILKAEMRGEQNDN,not soluble
13,MGSDKIHHHHHHMSNKLPALHLFGIFEAAARHENFKQAAAELFITPSAVSHQIKALEAFLGFELFQRKSRGVALNAAGKVYLHYVQQGINKLEQGTKIVSNKFSSPSLKISTFTTMASNVIIPTLSDFQQQHPTIDIRIETGMNLTDLRYDDCDLAIRMGKGDWPGVVVKKLLNLTAHAVCSAEFAKKHKLTSPEQISQVPLIDLANMNNIWRTWAGAMQLPEMQYQHKLTFGNYDASLQAAEQGLGLALAIMPIEHALIERNLLVLPFEKSTNFDQSLYAVYREEDQNRNDIHCFLDWLTQSPNLKPI,not soluble
14,RDTCVTLLLDNSGSMRGRPISIAAICADVLARTLERCQVKVEILGFTTRAWKGGQSREKWLAAGRPQQPGRLNDLRHIVYKGADAPWRRARENLGLMMKEGLLKENIDGEALEWAHRRLSSRAETRKILMVISDGAPVDDSTLSVNPASYLEKHLRDVIAMVERKRQVELIAIGIGHDVTRYYARAVTITDVEQLAGAMTEQLASLFDADPKKRIGKRRVA,not soluble
15,MDREALLERLKEPFDLLVLGGGATGAGVLWEATLRGLKAALVEAGDFASGTSSRSTKLLHGGVRYLELAFKRLDRRQLKLVVDALHERKVVMDLAPHLAKPLTLVTPLFRPLEIPYYTLGLKLYDLLAGKRRLAPSRYLPPEEVARLFPDLPKTLGGVAYQDGQFADFRLNLALVLSALERGAVALNHAEATALLLEGGRVRGAVVRDGLSGKEVEVRAKAVVNATGSLADRVRRLLDPHLPPLLTASSGVHLVLDYPLEAGLLVPKTRDGRVLFLLPYRGMALLGTTDLPAEPASCPLPREEEVAYLLEEIRPYLGDVSGRVRAVWSGLRPLVGKGETKLLVRDHYIEERRGLYTLVGGKWTTFRLMALDLVERLAKDLGLALPPSKSHATPLLGAGPRPPLPLPEEAARRLWETYGTLAPEVLALGDRPLLPGLPYLEGEVVWAVRRELARKPLDVLARRMGLAFLDQEKTREALPKVVELMAGLLGWDERERALRLKEAEEGLPGLC,soluble
16,MGSDKIHHHHHHMRLYTRTGDKGKTSVIGGRLAKDDTRVVAYGTTDELNSFVGLAITQLDENTFADIRGELFKIQHELFDCGGDLAMLKVKEDRPYKAKQEIVDFLEQRIDAYIKEAPELERFILPGGSEAAASLHVCRTIARRAERYVVRLQQEGEINPIVLKYLNRLSDYFFAVARVVNSRLQVPDVEYERSAIVFREGKRKEDKK,not soluble
17,MRADVKPVTVKLVDSQATMETRSLFAFMQEQRRHSIMFGHQHETTQGLTITRTDGTQSDTFNAVGDFAAVYGWDTLSIVAPKAEGDIVAQVKKAYARGGIITVSSHFDNPKTDTQKGVWPVGTSWDQTPAVVDSLPGGAYNPVLNGYLDQVAEWANNLKDEQGRLIPVIFRLYHENTGSWFWWGDKQSTPEQYKQLFRYSVEYLRDVKGVRNFLYAYSPNNFWDVTEANYLERYPGDEWVDVLGFDTYGPVADNADWFRNVVANAALVARMAEARGKIPVISGIGIRAPDIEAGLYDNQWYRKLISGLKADPDAREIAFLLVWRNAPQGVPGPNGTQVPHYWVPANRPENINNGTLEDFQAFYADEFTAFNRDIEQVYQRPTLIVK,soluble
18,MGSDKIHHHHHHMASFPELPALRRLATLGRSWGLLSDFKYEQTRPDIFYGNLALDTSSLVAALSEDISGAGLNDLKVLDVGGGPGYFAEAFETLGATYFSVEPDVGEMSAAGIDVHGSVRGSGLDLPFLPDSFDVVYSSNVAEHVSAPWELGEEMLRVTRSGGLAILSYTIWLGPFGGHETGLWEHYVGGEFARDRYTKKHGHPPKNVFGESLFNVSCREGLEWGASVGNAELVAAFPRYHPYWVWWMVKVPVLREFAVSNLVLVFKKH,not soluble
19,MPIIYYDGNCVYCYNYAIWLIQHGLSTRYQFAKLQGDVAQNLLENYPEAQQYDSVILQEGDQLKYKSDAITTLITSLTNYKWLGILLRFVPNIIRDFGYQLFADNRNHMWKTHWHEPNDYEKSFFIDLEHHHHHH,not soluble
20,MEQQSYTIIDETGAHARPATMLVQTASKFDSDIQLEYNGKKVNLKSIMGVMSLGVGKDAEITIYADGSDEADAIQAITDVLSKEGLTE,soluble
21,GPGSMGSEESNNICAYKRTISLAKIYIVLLVKTAMLRYSRLCFPKMGCEEIKRKARRVQLQPTEYLAQHRMQVWQLRFKEMGPPFSRVWVALGGKMRRRRVGRQVDVKDMRYYWRPIEPQYQRLYMSRLRIRDHSNKLRQPMRLRATNADIGSGSSSIEWERASNRKYGAMLAPPKRQDFEFRVV,not soluble
22,MIMNQQLNATKKDKLQVIDWLIENFPNAFFKKGNQVKPLKIGIFDDLIDFYERLDTPPFSKKSLREALSYYSASPAYLSCQKPDTARVDIYGNEVDVVTPEQAKYAYQRYQERYGNKKSQELK,not soluble
